Reference: patent US20240076371A1, “COMPOSITIONS AND METHODS FOR TREATING OSTEOARTHRITIS, RHEUMATOID ARTHRITIS, AND JOINT AND TENDON DISORDERS” (BOARD OF REGENTS, THE UNIVERSITY OF TEXAS SYSTEM, priority 2021, published 2024)

How the values were obtained:
[1] = test system: post-traumatic OA model (DMM) in male C57BL/6 mice; experiment: DMM OA model: synovitis score; assay type: in vivo, mouse; conditions: vs saline
Protocol: Destabilization of the medial meniscus (DMM) surgery was performed on the right knee joint of mice (Glasson S S, et al. Osteoarthritis and cartilage. 2007; 15(9):1061-9). Briefly, a 3 mm longitudinal incision over the distal patella to proximal tibial plateau was made. The joint capsule immediately medial to the patellar tendon was incised with a #15 blade and the joint capsule opened with micro-iris scissors. Blunt dissection of the fat pad over the intercondylar area was then performed to expose the intercondylar region, providing visualization of the meniscotibial ligament of the medial meniscus. Mild hemorrhage from the fat pad upon blunt dissection was controlled by pressure from absorption spears. Sectioning of medial meniscotibial ligament with micro-surgical knife, with the blade directed proximo-laterally, gave destabilization of the medial meniscus (DMM). Sham surgery was performed with the ligament visualized but not transected.
The degree of synovitis is determined considering synovial membrane thickening and synovial hyperplasia and scored on a scale of 0-3 (0, no synovitis; 1, mild synovitis; 2, moderate synovitis; and 3, severe synovitis) (Krenn V, et al. Pathology, research and practice. 2002; 198(5):317-25; and Huesa C, et al. Annals of the rheumatic diseases. 2016; 75(11):1989-97. Blinded histomorphometric assessment was performed.

[2] = target: T1, Cx43 hemichannels (HCs) in primary mouse chondrocytes (Mus musculus, UniProt P23242); experiment: Ethidium bromide dye uptake assay in primary mouse chondrocytes; assay type: cell-based
T1 construct: In primary mouse chondrocytes, ethidium bromide dye uptake assay; endogenous in cells; host or cells: primary mouse chondrocytes

[3] = test system: post-traumatic OA model (DMM) in male C57BL/6 mice; experiment: DMM OA model: immunohistochemistry of Col X and MMP13 in articular cartilage; assay type: in vivo, mouse
Protocol: Destabilization of the medial meniscus (DMM) surgery was performed on the right knee joint of mice (Glasson S S, et al. Osteoarthritis and cartilage. 2007; 15(9):1061-9). Briefly, a 3 mm longitudinal incision over the distal patella to proximal tibial plateau was made. The joint capsule immediately medial to the patellar tendon was incised with a #15 blade and the joint capsule opened with micro-iris scissors. Blunt dissection of the fat pad over the intercondylar area was then performed to expose the intercondylar region, providing visualization of the meniscotibial ligament of the medial meniscus. Mild hemorrhage from the fat pad upon blunt dissection was controlled by pressure from absorption spears. Sectioning of medial meniscotibial ligament with micro-surgical knife, with the blade directed proximo-laterally, gave destabilization of the medial meniscus (DMM). Sham surgery was performed with the ligament visualized but not transected. Immunohistochemistry. The ABC (avidin-biotin-peroxidase complex) Immunostaining Assay Kit (Vector Laboratories, PK-6101) was used. Briefly, bone tissue sections were antigen unmasked using sodium citrate buffer (pH 6.0) at 65° C. for 2 h for MMP13 staining and trypsin digestion buffer (pH 7.8) at 37° C. for 30 min for collagen X staining. Bone tissue sections were then treated with goat normal serum for 20 min at room temperature to block nonspecific background staining. Tissue sections were stained with anti-MMP13 polyclonal antibody (1:200 dilution, Abcam, ab39012), or labeled with anti-collagen X monoclonal antibody (1:100 dilution, Thermo Fisher, 14-9771-82) at 4° C. overnight. Then, the sections were incubated for 30 min with biotin-labeled secondary antibody and VECTASTAIN ABC Reagent for 30 min Samples were washed in PBS buffer and developed in DAB (SK4100) chromogen solution (Vector Laboratories, Burlingame, CA, USA). Tissues were then counterstained with VECTOR Hematoxylin (H-3401) for 5 min at room temperature. Slides were then dehydrated, cleared, and mounted. Sections were photographed using the Keyence microscope (BZ-X710, Keyence, Osaka, Japan). The percentage of MMP13 or Col X-positive chondrocytes were quantified using NIH Image J software.

Cx43 hemichannel = target: T2, Cx43 hemichannel (Mus musculus, UniProt P23242); experiment: In vivo Evans Blue dye uptake assay in synovium after DMM; conditions: 25 mg/kg at 30 mins after DMM surgery, Evans Blue 200 mg/kg at two weeks after the treatment; DMM increased opening by 2 folds
T2 construct: from tissue; host or cells: synovium of male C57BL/6 mice after DMM surgery (in vivo)
Protocol: In vivo dye uptake assay. Evans Blue dye (Mw: 900 Da) (200 mg/kg) and FITC-dextran (Mw: 10,000 Da) (200 mg/kg) were co-injected […] post-antibody treatment via the tail vein. One-hour post administration of the dye, mice were anesthetized, and cardiac perfusion was performed with cold PBS and 4% paraformaldehyde. Both hindlimbs were isolated and prepared for frozen sections. Sections were stained with DAPI and photographed using the Keyence microscope (BZ-X710, Keyence, Osaka, Japan). The intensity of dye uptake was quantified by NIH Image J software.
To determine the Cx43 hemichannel activity in vivo, Evans Blue dye uptake assay was performed. Mice were treated with saline or Cx43 antibody (M1 antibody) (25 mg/kg) at 30 mins after DMM surgery. Tail vein injection of Evans Blue dye (200 mg/kg) was performed at two weeks after the treatment, and Evans Blue dye uptake intensity was quantified in synovium region. […] Frozen sections prepared from saline-treated mice were immuno-labeled with the M1 antibody, further validated the role of the M1 antibody in blocking the osteoarthritis induced hemichannel opening in synoviocytes that express Cx43 (FIG. 11C).

T2 sequence (P23242 whole entry): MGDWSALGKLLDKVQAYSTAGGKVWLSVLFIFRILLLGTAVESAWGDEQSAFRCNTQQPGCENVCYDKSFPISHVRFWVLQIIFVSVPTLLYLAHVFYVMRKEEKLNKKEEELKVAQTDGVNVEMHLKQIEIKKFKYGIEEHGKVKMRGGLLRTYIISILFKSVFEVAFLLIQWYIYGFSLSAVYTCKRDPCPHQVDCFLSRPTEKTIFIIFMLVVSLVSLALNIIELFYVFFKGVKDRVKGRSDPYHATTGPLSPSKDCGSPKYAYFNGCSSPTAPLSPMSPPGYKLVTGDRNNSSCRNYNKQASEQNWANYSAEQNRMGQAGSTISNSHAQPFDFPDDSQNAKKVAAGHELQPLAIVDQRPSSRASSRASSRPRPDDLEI
T1 sequence (P23242 whole entry): as above

B1: M1 antibody: antibody with variable heavy chain SEQ ID NO: 58 and variable light chain SEQ ID NO: 60; inhibits or blocks opening of Cx43 hemichannel (antibody, V domains shown)
VH: EVQLQQPGAELVKPGASVKLSCKASGYTFTSYYMYWVKQRPGQGLEWIGGINPSNGGTNFNEKFKNKATLTVDKSSSTAYMQLSSLTSEDSAVYYCTREGNPYYTMNYWGQGTSVTVSS
VL: DIVMTQSPSSLSVSAGEKVTMSCKSSQSLLNSGNQKTYLAWYQQKPGQPPKLLIYGASTRESGVPDRFTGSGSGTDFTLTISSVQAEDLAVYYCQNDHSYPFTFGSGTKLEIK
[1]; DMM mice, i.p. twice at 30 minutes and four weeks post-surgery, 8 weeks after DMM
  degree of synovitis (synovitis score): marked reduction
[1]; delayed treatment: i.p. at 10, 25 and 40 days after DMM surgery, eight weeks after DMM
  degree of synovitis (synovitis score): significant reduction
[2]
  IL-1β treatment induced HCs opening (ethidium bromide dye uptake): blocked
[3]; DMM mice, eight weeks, saline: three zones
  distribution of MMP13-positive chondrocytes in articular cartilage zones: localized mainly in the middle and deep zones
[3]; articular cartilage, eight weeks following DMM, i.p. twice, vehicle-treated 52%
  percentage of Col X positive cells: 38%
[3]; eight weeks after DMM, i.p. twice, saline-treated 36%
  percentage of MMP-13-positive cells in the articular cartilage: 27%
[3]; single i.p. injection at 30 minutes post-surgery, eight weeks after DMM, saline 0.17±0.016
  MMP13 score, ratio of integrated optical density (IOD) to articular cartilage area: 0.10±0.009
Cx43 hemichannel
  DMM-increased hemichannel opening (Evans Blue dye uptake intensity in synovium region): blocked
